The target of assay [1] is FLAG-tagged human CCR5 expressed on transfected L1.2 murine pre-B lymphoma cells (human) (UniProt P51681).
For assay [2] the target is unchanged. Description: inhibition of 0.1 nM 125I-MIP-1α binding to CCR5 L1.2 transfectants by decreasing amounts of mAb; competitor MIP-1α.
Assay [3] addresses human CCR5 (no tag stated) (human) (UniProt P51681). Description: cell-based or functional assay.
The target of assay [4] is FLAG-tagged human CCR5 expressed on transfected L1.2 murine pre-B lymphoma cells (human) (UniProt P51681). Description: cell-based or functional assay.
The target in assay [5] is human CCR5 (no tag stated) (human) (UniProt P51681). In words: 10 µg/ml mAb; 125I-MIP-1α binding to activated IL-2 maintained T cells (CD3 blasts); competitor MIP-1α.
Assay [6] has the same target. In words: 10 µg/ml mAb; 125I-RANTES binding to activated IL-2 maintained T cells (CD3 blasts); competitor RANTES.
Assay [7] has as its target FLAG-tagged human CCR5 expressed on transfected L1.2 murine pre-B lymphoma cells (human) (UniProt P51681). Description: inhibition of 0.1 nM 125I-MIP-1β binding to CCR5 L1.2 transfectants by decreasing amounts of mAb; competitor MIP-1β.
The target is the same in assay [8]. Description: inhibition of 0.1 nM 125I-RANTES binding to CCR5 L1.2 transfectants by decreasing amounts of mAb; competitor RANTES.

Read-outs that look alike come from different tables or passages of the source.

For the substance murine monoclonal antibody 2D7, the IC50 was found to be 0.01 µg/mL in assay [1], 0.023 µg/mL in assay [2], 0.041 µg/mL in assay [7] and 0.058 µg/mL in assay [8]. The same substance registered a concentration giving complete inhibition of 125I-gp120 binding in assay [1] of 50 ng/mL. Besides, the inhibition of RANTES and MIP-1α chemotactic responses by T cell lines in assay [3] fell in the range of 60 to 80%. In assay [3], the inhibition of chemotactic response of anti-CD3/IL-2 stimulated T cells to MIP-1α was in the range of 60 to 80%. Moreover, the mAb concentration sufficient for complete inhibition of migration of CCR5 L1.2 cells to all of the ligands in assay [4] is 20 µg/mL. This substance showed a percent inhibition of 125I-MIP-1α binding in assay [5] of 85%. The percent inhibition of 125I-RANTES binding in assay [6] worked out at 95%.

Source of the values: patent publication US20030166870A1.
